Data reported in the DeepSol protein solubility set.

test: soluble on expression in E. coli; label from the status in PepcDB or PDB records

Sequence	soluble on expression in E. coli
MAHHHHHHMRVASFCLPLHLLSFGAQARGCFRHSTGGSSSVFCAARPFRLSHTMAASACSSAVHLDNFRLLAAGHDATHAAPSSAPLTAPISFSLTFHFQRYDGADFESFISSLGVSVDFVADVASEQTTLTLLPLTPVSGPWARRDTAAANGAFLMAASASDSSTSSSDYAAGAPLDGAAGAAPGMMYQLRVYLSDFRALEKVQLKHLLQVSMMHVRLAHLGTSDGVGNSDSSDPRTEERSVAAWNVIWRVRRNPQNEQELIRTVLDPLA	not soluble
MCEQGVSYYNSQELKCCKLCKPGTYSDHRCDKYSDTICGHCPSDTFTSIYNRSPWCHSCRGPCGTNRVEVTPCTPTTNRICHCDSNSYCLLKASDGNCVTCAPKTKCGRGYGKKGEDEMGNTICKKCRKGTYSKTGHHHHHH	soluble
MGSDKIHHHHHHMKQLTMPLTALALFTLGGCVTNSDLDVVRRDLDELKNRQFQVEKEVGGVRTEATARIESSFKDLDTERAGVRKGLADLQAAMDGIKVDMQVLAGKVDDVGLAAKKPGDDLILLREDLERRLTAFDQRLAKAETGIEALQKKVAEQAPSPKETEKPTPEALYQKGLDAYRAGNYGVARESFTRFLEQHPKHELAANARYWTGETYYSEKKFEQAILEFQEVIKNYPGKEKVPAAMLKQAAAFSEIGDAKSARFVLRKLADDYPSSEEAKRAKDRLKELK	not soluble
MTISEVSKKYELSADTLRYYERIGLIPPVNRNKSGIRSFTEEDCEWVNFIKCMRGAGLSIETLIEYVAMFQQGSSTIKARKELLIEQRNQLAKRIEEMQKTLERLNFKIDRYEEGIIEKEKVLKSSRNKKMEAVSYE	not soluble
ADKNPGSENMTNTIGPHDRGGSSPIYNILNSYLTAYNGSHHLYDRMSFLCLSSQNTLNGACPSSDAPGTATIDGETNITLQFTEKRSLIKRELQIKGYKQFLFKNANCPSKLALNSSHFQCNREQASGATLSLYIPAGELNKLPFGGVWNAVLKLNVKRRYDTTYGTYTINITVNLTDKGNIQIWLPQFKSNARVDLNLRPTGGGTYIGRNSVDMCFYDGYSTNSSSLEIRFQDDNSKSDGKFYLKKINDDSKELVYTLSLLLAGKNLTPTNGQALNINTASLETNWNRITAVTMPEISVPVLCWPGRLQLDAKVKNPEAGQYMGNIKITFTPSSQTLDNKQVEKNITVTASVDPVIDLLQADGNALPSAVKLAYSPASKTFESYRVMTQVHTNDATKKVIVKLADTPQLTDVLNSTVQMPISVSWGGQVLSTTAKEFEAAALGYSASGVNGVSSSQELVISAAPSTAGTAPTAGNYSGVVSLVMTLGSDNKQVEKNITVTASVDPVIDLLLEHHHHHH	soluble
MGSDKIHHHHHHMKASVIIPAYNSKERLYNSLLSLNQQECDEEFEVIVADNGSEDGTLSMLESFQADFPLIFTRIKENRGIAYGRNQALRNARGDILIFHDSDMLAAKDLVAKHIKAHENEENLVVCGLFWKRIYSFYYERFEEEHKEQLAKLTGEMPKKDKQKLLEEADIKNGSFLDKSFDLDTDFIDVLKKILDEYGDDLKGYHMPWRFFITNNSSVKRKHVVDLGLFDEGIVRYGFEDYDLGIRLHQAGLTFRLRRDIVSVHQEHPSNCKSVDDIRANIAYMCDKYNNIRSLDVHLAFNGPFPPDMTNRIMADIQKLLESQKYDMLLNLFLELLHVVKERNIDPDWRKKSPRVTAKSFDLQTVRKLLPKAKKKLGVNDFANALYALVNDLLHVDLRSLDVV	not soluble
MGSDKIHHHHHHVQESREFILEIAQLNKTYSGNRVLNNINFDLKLGEVHALVGENGAGKSTLIKIIAGVEKPDPGAEILFGGCPAINLNPSKSVQMGISVIYQDISLFPNLSVAENICIGGQKGLFIKWKQVFETARSALIKLGAIDIDPHVPLGEISIGQRQMVALARALTHEARVIIMDEPTSSLSANEIKALYSAIQILKNENKSLIYISHKFEEVFEVADRISVLRDGEMIASKAAWEFDEQSLISMMVGREIRFLPMRNDGVAGKKLLEVRGLTKEPLFRNISFSLYENEILGITGLVGAGRSEMAQTLFGLEKADKGRIFMGEKELSIKSAVDAIKSGICYLPEDRRGQGIFLIQSMARNITTAKLESILNRCRLLSRPKEMAVSEYYMDRLNIKPRLPDISADKMSGGNQQKLLFSRWLNARPQILIADEPSSGIDVATKAEIHGLLRELAASGVGVILISSDLPETLAVCDRILVMRNGNIVDQTSSKESSQEELIRKGLMG	not soluble
MGSDKIHHHHHHMGEIMKFYDREKELNYLKTYCQLEPNSILFVYGPKSSGKSTVMRRVIKELENSNIVFFYYNLRKYATPTRDEFLRVFFEKSDKKYLLNKLELNLGVCKFGIEENFDFNNLCLNDVFAKINESINAVVEEGKKPVLIIDELQKLKNIYFNGGKSLLNELFNLFVSLTKMEHLCHVICLTSDTLFIDEIYRNSTLKNASEYYLIDWLRKGTIRNILKEEGFSEEEINYALDYLSLPYEISQLINNKKLGLSVEQTIKQWINVEKDGLKYLIDTTDLDEEGLYNVLSKFKDKIKISYDKEVKKEEMKYLKFLIENEILFYDVINGIIKPTSIIEWHAIKEIINAMQ	not soluble
MPSEKAFIQHLRTASFQGLHLHHFHQKVGKCGVVGFDIHIFPTLLPAAQGILDIQLGLFRIDCAPLAVYRRTQVDFIHTVIDGIASDQAFSEVVQILRRLNLGHFTDTHLIAQARRFIADFGNIRPMRRGKAETFCRCFRFDGIDRIHGDFRQCGHINRLAAGKNCRNGKRDKVFFHAPIIIKFALRKQIVRQEK	not soluble
MPRFMRTQTKLRTIIRSNLMLNSSSMEISRSLTSWQKGARSIIHRALQYLEGNLTVIEHFPDQTQTTHEQFGQDKPDAIHAVIEIKHPDFYSRVLKGGSIAAAEAYMEGWWESPNLTALMQLMAANLGTLDKLESQSSPVTQWLNRFTHWLKRNTIDQAKDNIHQHYDLGNELYQLFLDEEMLYSSALFTQPELSLEQAQQAKMQRLCEQLQLKPTDHVLEIGTGWGAMAIYMAQHYGCKVTTTTISEEQYAYAQQKITALGLNNQITLLKQDYRLLSGQYDKLVSIEMIEAVGKAYLPTFLSQCYALLKPRGKMAIQAITIADQRYESYSNNVDFIQKYIFPGGFLPSISVLTELATKRTGLVLRNLHDIGIDYALTLQHWRDRFEQQLPKVRDLGYDERFIRMWRYYFCYCEGGFLARSISTVHMTFERD	not soluble
SMFRDQVGVLAGWFKGWNECEQTVALLSLLKRVSQTQARFLQLCLEHSLADCAELHVLEREANSPGIINQWQQESKDKVISLLLTHLPLLKPGNLDAKVEYMKLLPKTLAHSIEHNQHIEESRQLLSYALIHPATSLEDRSALAMWLNHLEDRTSTSFGGQNRGRSDSVDYGQTHYYHQRQNSDDKLNGWQNSRDSGICINASNWQDKSMGCENGHVPLYSSSSVPTTINTIGTSTSTSKFPGIPLT	soluble
MSLVACECLPSPGLEPEPCSRARSQAHVYLEQIRNRVALGVPDMTKRDYLVDAATQIRLALERDVSEDYEAAFNHYQNGVDVLLRGIHVDPNKERREAVKLKITKYLRRAEEIFNCHLQRPLSSGASPSAVQLVQDPATGGTFVVKSLPRCHMVSRERLTIIPHGVPYMTKLLRYFVSEDSIFLHLEHVQGGTLWSHLLSQAHSRHSGLSSGSTQERMKAQLNPHLNLLTPARLPSGHAPGQDRIALEPPRTSPNLLLAGEAPSTRPQREAEGEPTARTSTSGSSDLPKAPGGHLHLQARRAGQNSDAGPPRGLTWVPEGAGPVLGGCGRGMDQSCLSADGAGRGCGRATWSVREEQVKQWAAEMLVALEALHEQGVLCRDLHPGNLLLDQAGHIRLTYFGQWSEVEPQCCGEAVDNLYSAPEVGGISELTEACDWWSFGSLLYELLTGMALSQSHPSGIQAHTQLQLPEWLSRPAASLLTELLQFEPTRRLGMGEGGVSKLKSHPFFSTIQWSKLVGTSLETHLRTLIHWLSGPKPDCPG	soluble
MASNRGQLNHELSKLFNELWDADQNRMKSGKDYRISLQGKAGYVPAGSNQARDSASFPLFQFVDEEKLKSRKTFATFISLLDNYEMDTGVAEVVTPEEIAENNNFLDAILETKVMKMAHDYLVRKNQAKPTRNDFKVQLYNIWFQLYSRAPGSRPDSCGFEHVFVGESKRGQEMMGLHNWVQFYLQEKRKNIDYKGYVARQNKSRPDEDDQVLNLQFNWKEMVKPVGSSFIGVSPEFEFALYTIVFLASQEKMSREVVRLEEYELQIVVNRHGRYIGTAYPVLLSTNNPDLY	soluble
METIKALEKFMEFDRLQKDCSDKLDRERERRMKAEREIARKNCGGNPCERELKSERSNVKRLEYQLDAEKEKVKFYKRELERDRYLSSRYLTSSSDPHEKPLPNYTFPRIKNVSPLTTEATGSVEVAPPSTDVTEPISDVTPSVDVEPEHPPAF	not soluble
MTKGSPGDTPDKASDRAARGASDASDASDAWRRWHEQRVATVSAPYGPLALTGTHWLEDHPDGQLPDIPGRWTTDGDAVLLTAGRADGLTVDGRLLDGEARLTADRGPVGAARVARGERRLVVLVREGLWGVRDFDPAAPARRAFRGIAATPYDPRWSVPGRFTPYDTGRRSVRVPNADGRERGLALGGELAFELDGRAHTLQVGVEDDGSLWAVFADATSGSTSYRFRFLRPAAPDAEGRTTVDLNRALLPPCAFADHFVCPFPPPGNTLGARVEAGERELRLEHHHHHH	soluble
GHMATIHPTAIVDEGARIGAHSRIWHWVHICGGAEIGEGCSLGQNVFVGNRVRIGNRVKIQNNVSVYDNVFLEDDVFCGPSMVFTNVYNPRAAIERKSEYRDTIVRQGATLGANCTVVCGATIGRYAFVGAGAVVNKDVPDFALVVGVPARQIGWMSRHGEQLDLPLRGNAEATCPHTGERYILTDGVCRLA	soluble
MPKFVVIELNDDAATIDLLSYCVKKNFERVSLLTRLEDHPYLRDDQDVVQDDTQSQGTDGMLLQLNDEERQRLMKMISTPGPQTLSMERIQMAPGQGQHILQQHQIPSTSSYTNNSFIYIKSDPQYKDEPQQQSNQFDATVNSVAHGQAGLSTLEMFACNGSPNGGDVLRRKTPSRKAEDSIKATCKVCGHDVMYSPQRTWNLMRHVWIMHQSSKPNQCSICGYSHIKPYVRKHIESQHKHDSNATIIDLKSPELEAEWSQLLDQCFGVTYRKWKHHKEDTQHTVFAAGDEDYGHEHHFSPEEDVMTTL	not soluble
GMEKLSAIKKPDINVADAWEQYWNKTLVNSTPVLWDANVERAVVVDLPRFELLFNPELPLIDFACGNGTQTKFLSQFFPRVIGLDVSKSALEIAAKENTAANISYRLLDGLVPEQAAQIHSEIGDANIYMRTGFHHIPVEKRELLGQSLRILLGKQGAMYLIELGTGCIDFFNSLLEKYGQLPYELLLVMEHGIRPGIFTAEDIELYFPDFEILSQGEGLFQSIHKLPDGNYATPPAFWAVIKHR	soluble
MGSDKIHHHHHHMTTEFKGQTIPPMHTGGQGAVTGQRFLDRLRQNPPTLYIDGQRVADPTTHPSTRNMCQSLAGLYDLQFQEDLKETLTYEDGGKRYARSFMVPRTKDDLRLIAESHRIRANYGLGFLGRAPDYMNANVMAAGAGAEYFNGCSAAVPGDPKRDFAANMRRYYEYVQGNDLCLTHALTNPQVNRSKMASELPDPYIALGIVEETDEGVIVRGARMMATLPIADEILIFPSTVLKENADKSRYAMGFGIPTNTPGLSFQCREPIDVGRDPEDHPLSSRFDEQDAFVIFDDVLVPWERIFLLYDVELANKAYAGTDAVLHMAYQVVNLKIAKTEAFLGTAQSIVNAIGSGGFQHVQAKIAEIIIMLEIMKALEVAAREQAEPNDYGVMTPARAPLDAARNYYPANHARLPELLQLLGASGIIMMPSKADREGPLGPQIAKYLQTGNANADERLRLFRLAWDMSMSSFAGRQELYERYFFGDPVRMHSALYEVYDSSEAVARIGEFLQRK	not soluble
VADRYAVYWNSSNPRFQRGDYHIDVCINDYLDVFCPHYEDSVPEDKTERYVLYMVNFDGYSACDHTSKGFKRWECNRPHSPNGPLKFSEKFQLFTPFSLGFEFRPGREYFYISSAIPDNGRRSCLKLKVFVRPTNSCM	soluble
